In PMC5743471 (Theranostics, 2018):

Target: mouse serum albumin (mouse, UniProt P07724 25-608)
Experiment: SPR

Binder	Kd	koff	kon
ABD-iTEP (designed binder) LAEAKVLANRELDKYGVSDFYKRLINKAKTVEGVEALKLHILAALPGVGVPGGVGVPGGVGVPGGVGVPGGVGVPGGVGVPGGVGVPGGVGVPGGVGVPGGVGVPGGVGVPGGVGVPGGVGVPGGVGVPGGVGVPGGVGVPGGVGVPGGVGVPGGVGVPGGVGVPGGVGVPGGVGVPGGVGVPGGVGVPGGVGVPGGVGVPGGVGVPGGVGVPGGVGVPGGVGVPGGVGVPGGVGVPGGVGVPGGVGVPGGVGVPGGVLPGVGGVLPGVGGVLPGVGGVLPGVGGVLPGVGGVLPGVGGVLPGVGGVLPGVGGVLPGVGGVLPGVGGVLPGVGGVLPGVGGVLPGVGGVLPGVGGVLPGVGGVLPGVG	1.41 ± 0.04 nM	0.00305 s⁻¹	2.17e+06 M⁻¹ s⁻¹
ABD-iTEP-pOVA (designed binder) LAEAKVLANRELDKYGVSDFYKRLINKAKTVEGVEALKLHILAALPGVGVPGGVGVPGGVGVPGGVGVPGGVGVPGGVGVPGGVGVPGGVGVPGGVGVPGGVGVPGGVGVPGGVGVPGGVGVPGGVGVPGGVGVPGGVGVPGGVGVPGGVGVPGGVGVPGGVGVPGGVGVPGGVGVPGGVGVPGGVGVPGGVGVPGGVGVPGGVGVPGGVGVPGGVGVPGGVGVPGGVGVPGGVGVPGGVGVPGGVGVPGGVGVPGGVLPGVGGVLPGVGGVLPGVGGVLPGVGGVLPGVGGVLPGVGGVLPGVGGVLPGVGGVLPGVGGVLPGVGGVLPGVGGVLPGVGGVLPGVGGVLPGVGGVLPGVGGVLPGVGGSIINFEKL	1.4 ± 0.1 nM		
